{
  "source": "patent US20160271244A1",
  "about": "(DUKE UNIVERSITY, published 2016)",
  "key": {"A244gD+ gp120 [1]": {"target": "T1, A244gD+ gp120 (herpes simplex virus; HIV-1)", "assay": "SPR"}, "HV00044 (6240 TZ5 140C)": {"target": "T2, HV00044 (6240 TZ5 140C) (HIV-1)", "T2 construct": "domain: gp140; also called 624008 TA5 gp140; 6240 transmitted founder Env", "assay": "SPR"}, "A244gD- gp120": {"target": "T3, A244gD- gp120 (HIV-1)", "T3 construct": "domain: gp120", "assay": "SPR"}, "MN gp120": {"target": "T4, MN gp120 (HIV-1, UniProt P05877 32-513)", "T4 construct": "domain: gp120", "assay": "ELISA"}, "A244gD+ gp120 [2]": {"target": "T1, A244gD+ gp120", "assay": "ELISA on monomeric Env"}, "CM 243 gp120": {"target": "T5, CM 243 gp120 (HIV-1)", "T5 construct": "domain: gp120; also called gp120 CM243", "assay": "ELISA on monomeric Env"}, "HV00046 (902114 B2 140C)": {"target": "T6, HV00046 (902114 B2 140C) (HIV-1)", "T6 construct": "domain: gp140", "assay": "ELISA on monomeric Env"}, "[3]": {"target": "Env (gp120) of HIV-1 isolate Q23.17 (HIV-1)", "assay": "cell-based or functional assay"}, "[4]": {"target": "Env (gp120) of HIV-1 Q23.17.N160K (HIV-1)", "assay": "cell-based or functional assay"}, "[5]": {"target": "Env (gp120) of HIV-1 isolate JRCSF (HIV-1, UniProt P20871 32-848)", "assay": "cell-based or functional assay"}, "[6]": {"target": "Env (gp120) of HIV-1 isolate JRFL (virus) (HIV-1)", "assay": "cell-based or functional assay"}, "[7]": {"target": "Env (gp120) of HIV-1 JRFL.E168K (HIV-1)", "assay": "cell-based or functional assay"}, "[8]": {"target": "Env (gp120) of HIV-1 JRFL.N160K.E168K (HIV-1)", "assay": "cell-based or functional assay"}, "[9]": {"target": "Env (gp120) of HIV-1 isolate 7165.18 (HIV-1)", "assay": "cell-based or functional assay"}, "[10]": {"target": "Env (gp120) of HIV-1 7165.18.N160K (HIV-1)", "assay": "cell-based or functional assay"}, "SSA [11]": {"target": "SSA", "assay": "Athena autoantigen assay, mAb 25 ug/ml"}, "SSB [12]": {"target": "SSB", "sequence (P05455 whole entry)": "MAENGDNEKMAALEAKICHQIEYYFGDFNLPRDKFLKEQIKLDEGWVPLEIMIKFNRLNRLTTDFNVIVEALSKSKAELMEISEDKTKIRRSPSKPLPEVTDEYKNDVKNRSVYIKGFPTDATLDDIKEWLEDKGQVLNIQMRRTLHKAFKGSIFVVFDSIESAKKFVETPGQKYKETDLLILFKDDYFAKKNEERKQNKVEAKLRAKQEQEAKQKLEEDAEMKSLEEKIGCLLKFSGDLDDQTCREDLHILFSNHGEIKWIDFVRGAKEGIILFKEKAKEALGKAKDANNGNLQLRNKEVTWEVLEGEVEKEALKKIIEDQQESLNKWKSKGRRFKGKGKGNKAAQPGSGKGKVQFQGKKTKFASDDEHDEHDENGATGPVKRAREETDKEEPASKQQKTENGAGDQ", "assay": "Athena autoantigen assay, mAb 25 ug/ml"}, "Sm [13]": {"target": "Sm", "assay": "Athena autoantigen assay, mAb 25 ug/ml"}, "RNP [14]": {"target": "RNP", "assay": "Athena autoantigen assay, mAb 25 ug/ml"}, "Scl 70 [15]": {"target": "Scl 70", "assay": "Athena autoantigen assay, mAb 25 ug/ml"}, "Jo 1 [16]": {"target": "Jo 1", "sequence (P12081 2-509)": "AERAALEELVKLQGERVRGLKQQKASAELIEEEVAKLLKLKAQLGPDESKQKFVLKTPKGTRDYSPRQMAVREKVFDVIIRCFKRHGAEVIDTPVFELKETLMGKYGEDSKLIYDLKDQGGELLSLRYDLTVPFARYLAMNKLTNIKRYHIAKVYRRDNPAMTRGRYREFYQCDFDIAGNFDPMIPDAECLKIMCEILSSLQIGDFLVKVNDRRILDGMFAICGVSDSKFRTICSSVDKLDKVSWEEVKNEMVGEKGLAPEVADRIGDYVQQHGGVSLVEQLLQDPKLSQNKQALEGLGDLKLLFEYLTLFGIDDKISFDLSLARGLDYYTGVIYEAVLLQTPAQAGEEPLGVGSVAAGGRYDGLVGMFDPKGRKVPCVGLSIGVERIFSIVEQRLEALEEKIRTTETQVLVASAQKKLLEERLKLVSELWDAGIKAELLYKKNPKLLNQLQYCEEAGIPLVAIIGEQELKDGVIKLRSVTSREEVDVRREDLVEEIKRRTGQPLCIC", "assay": "Athena autoantigen assay, mAb 25 ug/ml"}, "Cent B [17]": {"target": "T7, Cent B", "T7 construct": "also called centromere B", "T7 sequence (P07199 2-599)": "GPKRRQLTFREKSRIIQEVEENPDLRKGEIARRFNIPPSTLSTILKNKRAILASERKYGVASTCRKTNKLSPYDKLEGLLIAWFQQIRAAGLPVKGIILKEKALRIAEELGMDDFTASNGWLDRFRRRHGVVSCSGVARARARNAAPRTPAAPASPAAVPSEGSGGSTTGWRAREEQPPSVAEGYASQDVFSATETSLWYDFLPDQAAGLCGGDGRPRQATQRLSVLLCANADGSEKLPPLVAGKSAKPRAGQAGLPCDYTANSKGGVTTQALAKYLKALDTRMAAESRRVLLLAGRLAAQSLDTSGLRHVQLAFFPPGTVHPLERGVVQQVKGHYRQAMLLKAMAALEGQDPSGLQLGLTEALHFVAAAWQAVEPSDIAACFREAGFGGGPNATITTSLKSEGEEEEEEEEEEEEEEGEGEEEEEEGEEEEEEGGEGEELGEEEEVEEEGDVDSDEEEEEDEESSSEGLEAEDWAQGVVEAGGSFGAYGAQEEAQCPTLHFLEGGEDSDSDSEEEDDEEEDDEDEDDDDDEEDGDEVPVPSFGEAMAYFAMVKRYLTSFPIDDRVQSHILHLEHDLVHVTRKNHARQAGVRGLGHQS", "assay": "Athena autoantigen assay, mAb 25 ug/ml"}, "Histone [18]": {"target": "Histone", "assay": "Athena autoantigen assay, mAb 25 ug/ml"}, "SSA [19]": {"target": "SSA", "assay": "Athena autoantigen assay, mAb 12.5 ug/ml"}, "SSB [20]": {"target": "SSB", "assay": "Athena autoantigen assay, mAb 12.5 ug/ml"}, "Sm [21]": {"target": "Sm", "assay": "Athena autoantigen assay, mAb 12.5 ug/ml"}, "RNP [22]": {"target": "RNP", "assay": "Athena autoantigen assay, mAb 12.5 ug/ml"}, "Scl 70 [23]": {"target": "Scl 70", "assay": "Athena autoantigen assay, mAb 12.5 ug/ml"}, "Jo 1 [24]": {"target": "Jo 1", "assay": "Athena autoantigen assay, mAb 12.5 ug/ml"}, "Cent B [25]": {"target": "T7, Cent B", "assay": "Athena autoantigen assay, mAb 12.5 ug/ml"}, "Histone [26]": {"target": "Histone", "assay": "Athena autoantigen assay, mAb 12.5 ug/ml"}, "SSA [27]": {"target": "SSA", "assay": "Athena autoantigen assay, mAb 6.25 ug/ml"}, "SSB [28]": {"target": "SSB", "assay": "Athena autoantigen assay, mAb 6.25 ug/ml"}, "Sm [29]": {"target": "Sm", "assay": "Athena autoantigen assay, mAb 6.25 ug/ml"}, "RNP [30]": {"target": "RNP", "assay": "Athena autoantigen assay, mAb 6.25 ug/ml"}, "Scl 70 [31]": {"target": "Scl 70", "assay": "Athena autoantigen assay, mAb 6.25 ug/ml"}, "Jo 1 [32]": {"target": "Jo 1", "assay": "Athena autoantigen assay, mAb 6.25 ug/ml"}, "Cent B [33]": {"target": "T7, Cent B", "assay": "Athena autoantigen assay, mAb 6.25 ug/ml"}, "Histone [34]": {"target": "Histone", "assay": "Athena autoantigen assay, mAb 6.25 ug/ml"}},
  "data": [
    {"binder": "CH01 (antibody, V domains shown, also called 1-27-G2; 27G2) VH: EVQLVESGANVVRPGGSLRLSCKASGFIFENFGFSWVRQAPGKGLQWVAGLNWNGGDTRYADSVKGRFRMSRDNSRNFVYLDMDKVGVDDTAFYYCARGTDYTIDDAGIHYQGSGTFWYFDLWGRGTLVSVSS VL: EIVLTQSPGTLSLSPGERATLSCRASHNVHPKYFAWYQQKPGQSPRLLIYGGSTRAAGIPGKFSGSGSGTDFTLTISRVDPEDFAVYYCQQYGGSPYTFGQGTKVEI", "values": [
      {"measurement": "Kd", "setting": "A244gD+ gp120 [1]", "value": 0.0088, "unit": "µM"},
      {"measurement": "Kd", "setting": "HV00044 (6240 TZ5 140C)", "value": 0.3, "unit": "µM"},
      {"measurement": "Kd", "setting": "A244gD- gp120", "value": 0.34, "unit": "µM"},
      {"measurement": "binding result", "setting": "MN gp120", "value": "no binding"},
      {"measurement": "EC50", "setting": "A244gD+ gp120 [2]", "value": 7.8, "unit": "µM"},
      {"measurement": "EC50", "setting": "CM 243 gp120", "value": 12.7, "unit": "µM"},
      {"measurement": "EC50", "setting": "HV00046 (902114 B2 140C)", "value": 63.2, "unit": "µM"},
      {"measurement": "IC50 (virus neutralization)", "setting": "[3]", "value": 0.014, "unit": "µg/mL"},
      {"measurement": "IC80 (virus neutralization)", "setting": "[3]", "value": 0.035, "unit": "µg/mL"},
      {"measurement": "IC50 (virus neutralization)", "setting": "[4]", "value": "> 50", "unit": "µg/mL"},
      {"measurement": "IC80 (virus neutralization)", "setting": "[4]", "value": "> 50", "unit": "µg/mL"},
      {"measurement": "IC50 (virus neutralization)", "setting": "[5]", "value": 0.07, "unit": "µg/mL"},
      {"measurement": "IC80 (virus neutralization)", "setting": "[5]", "value": "> 50", "unit": "µg/mL"},
      {"measurement": "IC50 (virus neutralization)", "setting": "[6]", "value": "> 50", "unit": "µg/mL"},
      {"measurement": "IC80 (virus neutralization)", "setting": "[6]", "value": "> 50", "unit": "µg/mL"},
      {"measurement": "IC50 (virus neutralization)", "setting": "[7]", "value": 0.044, "unit": "µg/mL"},
      {"measurement": "IC80 (virus neutralization)", "setting": "[7]", "value": 0.382, "unit": "µg/mL"},
      {"measurement": "IC50 (virus neutralization)", "setting": "[8]", "value": "> 50", "unit": "µg/mL"},
      {"measurement": "IC80 (virus neutralization)", "setting": "[8]", "value": "> 50", "unit": "µg/mL"},
      {"measurement": "IC50 (virus neutralization)", "setting": "[9]", "value": 5.82, "unit": "µg/mL"},
      {"measurement": "IC80 (virus neutralization)", "setting": "[9]", "value": "> 50", "unit": "µg/mL"},
      {"measurement": "IC50 (virus neutralization)", "setting": "[10]", "value": "> 50", "unit": "µg/mL"},
      {"measurement": "IC80 (virus neutralization)", "setting": "[10]", "value": "> 50", "unit": "µg/mL"},
      {"measurement": "Athena autoreactivity score", "setting": "SSA [11]", "value": 6.5},
      {"measurement": "Athena autoreactivity score", "setting": "SSB [12]", "value": 5.5},
      {"measurement": "Athena autoreactivity score", "setting": "Sm [13]", "value": 4},
      {"measurement": "Athena autoreactivity score", "setting": "RNP [14]", "value": 5.5},
      {"measurement": "Athena autoreactivity score", "setting": "Scl 70 [15]", "value": 3},
      {"measurement": "Athena autoreactivity score", "setting": "Jo 1 [16]", "value": 2.5},
      {"measurement": "Athena autoreactivity score", "setting": "Cent B [17]", "value": 14},
      {"measurement": "Athena autoreactivity score", "setting": "Histone [18]", "value": 17.5},
      {"measurement": "Athena autoreactivity score", "setting": "SSA [19]", "value": 5},
      {"measurement": "Athena autoreactivity score", "setting": "SSB [20]", "value": 5},
      {"measurement": "Athena autoreactivity score", "setting": "Sm [21]", "value": 3},
      {"measurement": "Athena autoreactivity score", "setting": "RNP [22]", "value": 4.5},
      {"measurement": "Athena autoreactivity score", "setting": "Scl 70 [23]", "value": 2},
      {"measurement": "Athena autoreactivity score", "setting": "Jo 1 [24]", "value": 2},
      {"measurement": "Athena autoreactivity score", "setting": "Cent B [25]", "value": 10},
      {"measurement": "Athena autoreactivity score", "setting": "Histone [26]", "value": 13.5},
      {"measurement": "Athena autoreactivity score", "setting": "SSA [27]", "value": 5.5},
      {"measurement": "Athena autoreactivity score", "setting": "SSB [28]", "value": 5.5},
      {"measurement": "Athena autoreactivity score", "setting": "Sm [29]", "value": 2.5},
      {"measurement": "Athena autoreactivity score", "setting": "RNP [30]", "value": 4},
      {"measurement": "Athena autoreactivity score", "setting": "Scl 70 [31]", "value": 1.5},
      {"measurement": "Athena autoreactivity score", "setting": "Jo 1 [32]", "value": 2},
      {"measurement": "Athena autoreactivity score", "setting": "Cent B [33]", "value": 7},
      {"measurement": "Athena autoreactivity score", "setting": "Histone [34]", "value": 10}
    ]}
  ]
}
